According to US20110097323A1:

How the values were obtained:
CD16A F158 (human) = CD16A F158 (human) (UniProt P08637); assay: Table 3; relative to wild-type Fc; method not stated
CD32B (FcγRII-B) = CD32B (FcγRII-B) (UniProt P31994); assay: as above
CD16A V158 (human) = CD16A V158 (human) (UniProt P08637); assay: as above
HER-2 = HER-2 (UniProt P04626); assay: SPR (BIAcore 1000), HER-2 amine-coupled to chip, antibody injected at 6.25-200 nM

CD16A F158 (human), sequence (P08637 17-208 limits assumed): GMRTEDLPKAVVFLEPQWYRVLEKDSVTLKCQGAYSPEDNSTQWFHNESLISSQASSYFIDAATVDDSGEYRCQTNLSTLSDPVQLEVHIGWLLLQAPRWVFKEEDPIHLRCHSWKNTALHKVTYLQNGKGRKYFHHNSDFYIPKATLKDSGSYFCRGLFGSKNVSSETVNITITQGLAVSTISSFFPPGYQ
CD32B (FcγRII-B), sequence (P31994 43-217 limits assumed): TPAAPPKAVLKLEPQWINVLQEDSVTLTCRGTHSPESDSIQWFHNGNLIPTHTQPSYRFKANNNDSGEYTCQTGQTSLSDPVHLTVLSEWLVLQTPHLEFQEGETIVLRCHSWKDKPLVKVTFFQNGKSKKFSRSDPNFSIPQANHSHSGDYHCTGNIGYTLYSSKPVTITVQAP
CD16A V158 (human), sequence (P08637 17-208 F176V limits assumed): as the sequence (P08637 17-208 limits assumed) above, with F160V counted along it

Substance | binding relative to wild-type Fc (fold) (CD16A F158 (human)) | binding relative to wild-type Fc (fold) (CD32B (FcγRII-B)) | binding relative to wild-type Fc (fold) (CD16A V158 (human)) | koff (HER-2) [s⁻¹] | kon (HER-2) [M⁻¹ s⁻¹]
Fc variant F243I R292P Y300L V305I P396L (from UniProt P01857 99-330) | 3.12 | 1.05 |  |  | 
Fc variant F243L R292P P300L (from UniProt P0DOX5 228-449) | 2.3 | 0.32 | 6.69 |  | 
Fc variant V284M R292P K370N (from UniProt P01857 99-330) | 1.37 | 0.37 | 1.14 |  | 
ch4D5 (antibody) |  |  |  | 6.3e-06 | 110000
